Literature values in article PMC5450005.
Read-outs that look alike come from different tables or passages of the source.

Columns and labels:
[1] = target: ApelinR (Rattus norvegicus) (UniProt Q9JHG3)
[2] = target: ApelinR (Rattus norvegicus) (UniProt Q9JHG3); remark: listed apart in the source

Sequence of UniProt Q9JHG3 (Q9JHG3 whole entry): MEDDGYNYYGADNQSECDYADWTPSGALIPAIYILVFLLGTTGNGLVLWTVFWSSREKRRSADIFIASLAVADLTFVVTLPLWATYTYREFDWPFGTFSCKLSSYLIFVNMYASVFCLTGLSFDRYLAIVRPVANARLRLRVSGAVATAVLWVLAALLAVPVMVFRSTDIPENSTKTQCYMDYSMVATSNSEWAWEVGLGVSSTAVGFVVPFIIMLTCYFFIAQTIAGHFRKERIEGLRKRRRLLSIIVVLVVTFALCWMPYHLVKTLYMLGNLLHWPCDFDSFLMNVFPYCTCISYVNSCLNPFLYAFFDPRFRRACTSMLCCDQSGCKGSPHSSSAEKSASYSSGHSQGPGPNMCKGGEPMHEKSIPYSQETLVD

| Substance | Ki [1] | Ki [2] |
| --- | --- | --- |
| pE13F (apelin-13) (from UniProt Q9ULZ1) | 0.56 nM |  |
| K17F (apelin-17) (from UniProt Q9ULZ1) |  | 0.06 nM |
